The values that follow come from patent publication US6489103.

For the data set, the system named is M.HhaI DNA methyltransferase (Haemophilus parahaemolyticus). The experiment in a line: cleavage_in_vitro. The note with it: up to 20% of compartmentalised genes protected from HhaI after 60-180 min; HaeIII and EcoRI sites not protected; SAM 80 uM, 25-30 C.

DIG-M.HhaI-Biotin 1167 bp fragment had an activity of 20%.
